Literature values in patent US9624506B2, “Glyphosate resistance enhancement” (Keygene N.V., priority 2011, dated 2017).

Assays:
[1] = Salmonella EPSPS; cited from earlier work
[2] = Salmonella EPSPS; cited from earlier work; remark: listed apart in the source

B1: T42M: T42M mutation in Salmonella EPSPS enzyme (protein, UniProt P07637 1-427, looked up, variant T42M)
3-phosphoshikimate …: MESLTLQPIARVDGAINLPGSKSVSNRALLLAALACGKTALMNLLDSDDVRHMLNALSALGINYTLSADRTRCDITGNGGALRAPGALELFLGNAGTAMRPLAAALCLGQNEIVLTGEPRMKERPIGHLVDSLRQGGANIDYLEQENYPPLRLRGGFTGGDIEVDGSVSSQFLTALLMTAPLAPKDTIIRVKGELVSKPYIDITLNLMKTFGVEIANHHYQQFVVKGGQQYHSPGRYLVEGDASSASYFLAAGAIKGGTVKVTGIGRKSMQGDIRFADVLEKMGATITWGDDFIACTRGELHAIDMDMNHIPDAAMTIATTALFAKGTTTLRNIYNWRVKETDRLFAMATELRKVGAEVEEGHDYIRITPPAKLQHADIGTYNDHRMAMCFSLVALSDTPVTILDPKCTAKTFPDYFEQLARMSTPA
In the case of B1, the “lower affinity for its normal substrate (PEP)” value [1] is given as 25 fold and the “higher tolerance for glyphosate” value [2] is given as 26 fold.
